Data taken from patent publication US20250197838A1, “UROKINASE-TYPE PLASMINOGEN ACTIVATOR RECEPTOR BINDING PEPTIDES AND METHODS OF USE” (The United States Government as represented by the …, priority 2022, published 2025).

Columns and labels:
FXII-uPAR binding = FXII-uPAR binding (Homo sapiens, UniProt Q03405); assay: Microscale thermophoresis of FXII-uPAR binding in absence or presence of FXII-derived inhibitory peptides; details: FIG. 2A
Method: FIGS. 2A-D show the characterization of FXII-derived inhibitory peptides. […] FXII_fl: recombinant full length FXII: Combo: combination of IPP-DLA-LHV peptides, 10 μM each. * p=0.004 FXII_fl vs. Combo, 2-way ANOVA.
The results provide insight on the structure of the non-catalytic region of FXII. These advances have also provided the structural details required to develop peptide antagonists. To this end, 3 peptides containing FXII amino acid residues implicated in uPAR binding were synthesized and termed “IPP” (corresponding to SEQ ID NO: 1), “DLA” (corresponding to SEQ ID NO: 2), and “LHV” (corresponding to SEQ ID NO: 3). The kinetics of peptide interference with FXII-uPAR binding was screened which yielded nanomolar affinity for each (FIG. 2A).

uPAR [1] = molecular target: T1, uPAR (Homo sapiens, UniProt Q03405); assay: Hydroxyl radical footprinting (HRF) with LC-MS: free FXII vs FXII in complex with uPAR; assay type: binding
Method: Briefly, free uPAR and human FXII protein samples were prepared with the final protein concentration of 2.5 μM and 3 μM, respectively (1:1.2 uPAR: FXII molar ratio). Free uPAR and FXII and FXII-uPAR complex were exposed to hydroxyl radicals for intervals of 0, 12, 20, and 40 milliseconds using the X-ray beam line. Next, the irradiated samples were reduced and alkylated with 10 mM and 25 mM of DTT and iodoacetamide, respectively. Subsequently, the samples were subjected to a trypsin and AspN digestion (1:10 enzyme to protein ratio) followed by liquid chromatography coupled with high-resolution mass spectrometry (LC-MS). The MS data were analyzed manually resulting in dose-response plots for each peptide. The HRF process introduces stable side chain oxidative modifications resulting in specific mass shifts, which were identified from the tandem mass spectrometry data. The selected ion chromatograms (SIC) were extracted and integrated for the un-oxidized and the oxidized forms of peptide ion (with particular m z). These peak area values were used to characterize reaction kinetics in the form of dose-response (DR) plots, which measure the loss of intact peptide as a function of the hydroxyl radical exposure. […] Differences in the rate of oxidation (called rate constant, RC) indicate the potential locations of the binding interface. MSI data for free and complex proteins were used to determine RC values for each peptide within the protein. Peptide location and the corresponding sequence are shown in columns 1 and 2, respectively. The third and fourth columns show the RC values for the free FXII protein and complex, respectively. The RC values were averaged from replicate experiments and the associated errors are shown next to each RC value.
Target sequence in this assay (Q03405 23-305 limits assumed): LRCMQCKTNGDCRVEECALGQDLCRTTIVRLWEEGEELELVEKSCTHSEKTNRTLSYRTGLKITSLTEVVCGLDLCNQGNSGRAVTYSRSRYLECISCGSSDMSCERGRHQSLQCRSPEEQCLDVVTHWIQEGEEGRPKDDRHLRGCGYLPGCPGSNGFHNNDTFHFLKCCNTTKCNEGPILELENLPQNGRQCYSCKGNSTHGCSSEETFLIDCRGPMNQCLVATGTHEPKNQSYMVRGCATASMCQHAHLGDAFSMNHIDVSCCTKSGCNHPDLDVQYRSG

[2] = molecular target: T2, urokinase-type plasminogen activator receptor (uPAR; Plaur, Homo sapiens) (Homo sapiens, UniProt Q03405 23-305, limits assumed); assay: peptide interference with FXII-uPAR binding, microscale thermophoresis
T2 construct: also called human uPAR; human soluble uPAR

uPAR [3] = molecular target: T1, uPAR; assay: Microscale thermophoresis of uPAR binding on site-directed FXII mutants (Ala substitutions); details: FIG. 1D
Source text: FIGS. 1A-D show the characterization of the FXII-uPAR binding interphase.
Each variant was characterized in several assays including microscale thermophoresis. […] These findings explain, at least in part, why the FXII-uPAR interaction is not a constitutive process in vivo.
Target sequence in this assay (Q03405 23-305): as the sequence (Q03405 23-305 limits assumed) above

T2 sequence (Q03405 23-305 limits assumed): as above
FXII-uPAR binding, sequence (Q03405 23-305 limits assumed): as above

DLAQCQTPTQAAPPTPVSPR [listing 1 of 2 here]
affinity, peptide interference with FXII-uPAR binding (FXII-uPAR binding): nanomolar

DLAQCQTPTQAAPPTPVSPR [listing 2 of 2 here]
Modification rate, KFXII, S^−1 FXII free (uPAR [1]; site P285, FXII position 272-291): 1.3 ± 0.061 S^−1 | Modification rate, KCOM, S^−1 FXII complex (uPAR [1]; site P285, FXII position 272-291, complex with human uPAR): 0.87 ± 0.030 S^−1 | Modification rate, KFXII, S^−1 FXII free (uPAR [1]; site P287, FXII position 272-291): 0.23 ± 0.021 S^−1 | Modification rate, KCOM, S^−1 FXII complex (uPAR [1]; site P287, FXII position 272-291, complex with human uPAR): 0.11 ± 0.009 S^−1 | Modification rate, KFXII, S^−1 FXII free (uPAR [1]; site Q281, FXII position 272-291): 0.97 ± 0.047 S^−1 | Modification rate, KCOM, S^−1 FXII complex (uPAR [1]; site Q281, FXII position 272-291, complex with human uPAR): 0.53 ± 0.019 S^−1 | Modification rate, KFXII, S^−1 FXII free (uPAR [1]; site V288, FXII position 272-291): 0.71 ± 0.04 S^−1 | Modification rate, KCOM, S^−1 FXII complex (uPAR [1]; site V288, FXII position 272-291, complex with human uPAR): 0.46 ± 0.019 S^−1

IPPWEAPK [listing 1 of 2 here]
affinity, peptide interference with FXII-uPAR binding (FXII-uPAR binding): nanomolar

IPPWEAPK [listing 2 of 2 here]
Modification rate, KFXII, S^−1 FXII free (uPAR [1]; site W4, FXII position 1-8): 3.08 ± 0.25 S^−1 | Modification rate, KCOM, S^−1 FXII complex (uPAR [1]; site W4, FXII position 1-8, complex with human uPAR): 3.08 ± 0.13 S^−1

LHVPLMPAQPAPPK [listing 1 of 2 here]
affinity, peptide interference with FXII-uPAR binding (FXII-uPAR binding): nanomolar

LHVPLMPAQPAPPK [listing 2 of 2 here]
Modification rate, KFXII, S^−1 FXII free (uPAR [1]; site H293, FXII position 292-305): 2.55 ± 0.30 S^−1 | Modification rate, KCOM, S^−1 FXII complex (uPAR [1]; site H293, FXII position 292-305, complex with human uPAR): 1.82 ± 0.15 S^−1 | Modification rate, KFXII, S^−1 FXII free (uPAR [1]; site K305, FXII position 292-305): 1.06 ± 0.063 S^−1 | Modification rate, KCOM, S^−1 FXII complex (uPAR [1]; site K305, FXII position 292-305, complex with human uPAR): 0.58 ± 0.042 S^−1 | Modification rate, KFXII, S^−1 FXII free (uPAR [1]; site L296, FXII position 292-305): 0.62 ± 0.054 S^−1 | Modification rate, KCOM, S^−1 FXII complex (uPAR [1]; site L296, FXII position 292-305, complex with human uPAR): 0.29 ± 0.057 S^−1 | Modification rate, KFXII, S^−1 FXII free (uPAR [1]; site V294, FXII position 292-305): 0.85 ± 0.093 S^−1 | Modification rate, KCOM, S^−1 FXII complex (uPAR [1]; site V294, FXII position 292-305, complex with human uPAR): 0.79 ± 0.078 S^−1

DLAQCQTPTQAAPPTPVSPR (Synthesized FXII-derived peptide) [DLA peptide (DLAQCQTPTQAAPPTPVSPR)]
binding result [2]: binds

IPPWEAPK (Synthesized FXII-derived peptide) [IPP peptide (IPPWEAPK)]
binding result [2]: binds

B1: W4A variant: zymogen FXII with single Ala substitution of W residue at position 4 (protein)
chain: IPPAEAPKEHKYKAEEHTVVLTVTGEPCHFPFQYHRQLYHKCTHKGRPGPQPWCATTPNFDQDQRWGYCLEPKKVKDHCSKHSPCQKGGTCVNMPSGPHCLCPQHLTGNHCQKEKCFEPQLLRFFHKNEIWYRTEQAAVARCQCKGPDAHCQRLASQACRTNPCLHGGRCLEVEGHRLCHCPVGYTGAFCDVDTKASCYDGRGLSYRGLARTTLSGAPCQPWASEATYRNVTAEQARNWGLGGHAFCRNPDNDIRPWCFVLNRDRLSWEYCDLAQCQTPTQAAPPTPVSPRLHVPLMPAQPAPPKPQPTTRTPPQSQTPGALPAKREQPPSLTRNGPLSCGQRLRKSLSSMTRVVGGLVALRGAHPYIAALYWGHSFCAGSLIAPCWVLTAAHCLQDRPAPEDLTVVLGQERRNHSCEPCQTLAVRSYRLHEAFSPVSYQHDLALLRLQEDADGSCALLSPYVQPVCLPSGAARPSETTLCQVAGWGHQFEGAEEYASFLQEAQVPFLSLERCSAPDVHGSSILPGMLCAGFLEGGTDACQGDSGGPLVCEDQAAERRLTLQGIISWGSGCGDRNKPGVYTDVAYYLAWIREHTVS
FXII-uPAR binding of FXII variant (uPAR [3]): significantly reduced

LHVPLMPAQPAPPK (Synthesized FXII-derived peptide) [LHV peptide (LHVPLMPAQPAPPK)]
binding result [2]: binds
